Test results taken from patent US20240138384A1.

Target: humanized CD47 polypeptide on red blood cells from humanized CD47 mice (human extracellular and transmembrane portions with mouse signal peptide portion and mouse intracytoplasmic tail) (UniProt Q08722)
Experiment: flow cytometry on RBCs from humanized CD47 mice, isotype control (baseline)

UniProt Q08722, sequence (Q08722 other isoform, or with tags, fused parts or gaps limits assumed): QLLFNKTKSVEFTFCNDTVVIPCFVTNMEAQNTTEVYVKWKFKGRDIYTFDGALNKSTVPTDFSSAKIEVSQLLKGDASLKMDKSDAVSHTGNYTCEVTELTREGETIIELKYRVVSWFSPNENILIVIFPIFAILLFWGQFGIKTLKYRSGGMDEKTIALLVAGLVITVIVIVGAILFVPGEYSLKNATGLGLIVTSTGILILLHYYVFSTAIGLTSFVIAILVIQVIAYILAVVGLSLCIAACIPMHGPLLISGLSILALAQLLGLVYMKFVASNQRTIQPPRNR

Substance	MFI [MFI]
Control, hIgG4s (antibody)	112
Control, hIgG4 (antibody)	112
